According to patent US20210246166A1 (Bayer, published 2021):
Blank lines part the entries; values can stand above or below the binder they belong to. Numbered stars: 1 amine (or outer) side, 2 acyl side, 3 side chain; on linkers, the order of the positions; unused ones are H or OH. Bridge positions count the residues as written; N and C are the ends. Square brackets hold non-standard residues; d marks the D form. Ends that are not written are not given here. X13 = (2S)‑2‑amino‑3‑(1-methylcyclopropyl)propanoic acid, CC1(C[C@H](N[*:1])C(=O)[*:2])CC1; Oic = O=C(O)[C@@H]1C[C@@H]2CCCC[C@@H]2N1; tBuAla = CC(C)(C)C[C@H](N)C(=O)O; Pen = CC(C)(S)[C@H](N)C(=O)O; NMeC = CN[C@@H](CS)C(=O)O; Orn = NCCC[C@H](N)C(=O)O; Dap = NC[C@H](N)C(=O)O; Sar = CNCC(=O)O

How the values were obtained:
[1] = target: T1, Recombinant human MASP1 enzyme (fragment corresponding to amino acids 297-699, C-terminal His Tag) (human, UniProt P48740 297-699); assay: cell-based or functional assay
T1 sequence: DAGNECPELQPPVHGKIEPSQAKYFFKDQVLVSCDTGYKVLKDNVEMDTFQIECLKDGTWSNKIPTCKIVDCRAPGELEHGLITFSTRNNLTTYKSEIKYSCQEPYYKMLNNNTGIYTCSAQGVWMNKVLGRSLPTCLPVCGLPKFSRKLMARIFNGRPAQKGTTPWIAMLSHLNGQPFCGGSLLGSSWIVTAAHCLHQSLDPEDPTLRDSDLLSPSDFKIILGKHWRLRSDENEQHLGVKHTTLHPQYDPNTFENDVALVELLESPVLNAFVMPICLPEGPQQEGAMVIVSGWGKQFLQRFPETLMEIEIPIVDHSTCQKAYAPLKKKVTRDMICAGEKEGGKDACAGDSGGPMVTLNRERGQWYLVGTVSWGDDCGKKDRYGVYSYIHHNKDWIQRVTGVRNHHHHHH

[2] = target: Recombinant human MASP2 enzyme (fragment corresponding to amino acids 297-686, C-terminal His Tag) (human, UniProt O00187 297-686); assay: cell-based or functional assay
Chain of Recombinant human MASP2 enzyme (fragment corresponding to amino acids 297-686, C-terminal His Tag) (O00187 other isoform, or with tags, fused parts or gaps limits assumed): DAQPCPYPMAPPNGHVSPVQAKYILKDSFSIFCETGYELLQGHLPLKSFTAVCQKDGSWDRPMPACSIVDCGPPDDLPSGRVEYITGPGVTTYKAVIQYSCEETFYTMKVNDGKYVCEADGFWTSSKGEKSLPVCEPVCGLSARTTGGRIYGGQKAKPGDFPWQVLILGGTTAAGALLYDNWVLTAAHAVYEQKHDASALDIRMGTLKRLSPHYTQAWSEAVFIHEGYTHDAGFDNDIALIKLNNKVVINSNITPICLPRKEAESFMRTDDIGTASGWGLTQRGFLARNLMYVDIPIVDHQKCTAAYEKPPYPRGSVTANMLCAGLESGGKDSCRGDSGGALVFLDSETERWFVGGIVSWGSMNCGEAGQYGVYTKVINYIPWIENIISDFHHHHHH

human MASP1 IC50 [1]: 4.8 nM | human MASP2 IC50 [2]: 170 nM
B2: (Orn)-IC+SRS-((tBu)A)-PPIC+I-NH2 (peptide)
peptide: [Orn]ICSRS[tBuAla]PPICI-NH2
modifications: disulfide 3-11; N-terminus assumed
SMILES: CC[C@H](C)[C@H](NC(=O)[C@@H]1CSSC[C@H](NC(=O)[C@@H](NC(=O)[C@@H](N)CCCN)[C@@H](C)CC)C(=O)N[C@@H](CO)C(=O)N[C@@H](CCCNC(=N)N)C(=O)N[C@@H](CO)C(=O)N[C@@H](CC(C)(C)C)C(=O)N2CCC[C@H]2C(=O)N2CCC[C@H]2C(=O)N[C@@H]([C@@H](C)CC)C(=O)N1)C(N)=O

human MASP1 IC50 [1]: 4.8 nM | human MASP2 IC50 [2]: 245 nM
B4: AIC+SRSLP-(Oic)-I-((N-Me)C)+IPD-NH2 (peptide)
peptide: AICSRSLP[Oic]I[NMeC]IPD-NH2
modifications: disulfide 3-11; N-terminus assumed
SMILES: CC[C@H](C)[C@H](NC(=O)[C@H](C)N)C(=O)N[C@H]1CSSC[C@@H](C(=O)N[C@H](C(=O)N2CCC[C@H]2C(=O)N[C@@H](CC(=O)O)C(N)=O)[C@@H](C)CC)N(C)C(=O)[C@H]([C@@H](C)CC)NC(=O)[C@@H]2C[C@@H]3CCCC[C@@H]3N2C(=O)[C@@H]2CCCN2C(=O)[C@H](CC(C)C)NC(=O)[C@H](CO)NC(=O)[C@H](CCCNC(=N)N)NC(=O)[C@H](CO)NC1=O

human MASP1 IC50 [1]: 5 nM | human MASP2 IC50 [2]: 150 nM
B5: aIC+SRSLP-(Oic)-I-(Pen)+IPE-NH2 (peptide)
peptide: [dA]ICSRSLP[Oic]I[Pen]IPE-NH2
modifications: disulfide 3-11; N-terminus assumed
SMILES: CC[C@H](C)[C@H](NC(=O)[C@@H](C)N)C(=O)N[C@H]1CSSC(C)(C)[C@@H](C(=O)N[C@H](C(=O)N2CCC[C@H]2C(=O)N[C@@H](CCC(=O)O)C(N)=O)[C@@H](C)CC)NC(=O)[C@H]([C@@H](C)CC)NC(=O)[C@@H]2C[C@@H]3CCCC[C@@H]3N2C(=O)[C@@H]2CCCN2C(=O)[C@H](CC(C)C)NC(=O)[C@H](CO)NC(=O)[C@H](CCCNC(=N)N)NC(=O)[C@H](CO)NC1=O

human MASP1 IC50 [1]: 4.9 nM | human MASP2 IC50 [2]: 140 nM
B6: aIC+SRSLP-(Oic)-I-(Pen)+IPQ-OH (peptide)
peptide: [dA]ICSRSLP[Oic]I[Pen]IPQ-OH
modifications: disulfide 3-11; N-terminus assumed
SMILES: CC[C@H](C)[C@H](NC(=O)[C@@H](C)N)C(=O)N[C@H]1CSSC(C)(C)[C@@H](C(=O)N[C@H](C(=O)N2CCC[C@H]2C(=O)N[C@@H](CCC(N)=O)C(=O)O)[C@@H](C)CC)NC(=O)[C@H]([C@@H](C)CC)NC(=O)[C@@H]2C[C@@H]3CCCC[C@@H]3N2C(=O)[C@@H]2CCCN2C(=O)[C@H](CC(C)C)NC(=O)[C@H](CO)NC(=O)[C@H](CCCNC(=N)N)NC(=O)[C@H](CO)NC1=O

human MASP1 IC50 [1]: 5.2 nM | human MASP2 IC50 [2]: 250 nM
B8: AIC+SRS-((tBu)A)-P-(Oic)-I-((N-Me)C)+I-NH2 (peptide)
peptide: AICSRS[tBuAla]P[Oic]I[NMeC]I-NH2
modifications: disulfide 3-11; N-terminus assumed
SMILES: CC[C@H](C)[C@H](NC(=O)[C@@H]1CSSC[C@H](NC(=O)[C@@H](NC(=O)[C@H](C)N)[C@@H](C)CC)C(=O)N[C@@H](CO)C(=O)N[C@@H](CCCNC(=N)N)C(=O)N[C@@H](CO)C(=O)N[C@@H](CC(C)(C)C)C(=O)N2CCC[C@H]2C(=O)N2[C@@H](C[C@@H]3CCCC[C@@H]32)C(=O)N[C@@H]([C@@H](C)CC)C(=O)N1C)C(N)=O

human MASP1 IC50 [1]: 4.9 nM | human MASP2 IC50 [2]: 200 nM
B12: aIC+SRSLP-(Oic)-I-(Pen)+IP-OH (peptide)
peptide: [dA]ICSRSLP[Oic]I[Pen]IP-OH
modifications: disulfide 3-11; N-terminus assumed
SMILES: CC[C@H](C)[C@H](NC(=O)[C@@H](C)N)C(=O)N[C@H]1CSSC(C)(C)[C@@H](C(=O)N[C@H](C(=O)N2CCC[C@H]2C(=O)O)[C@@H](C)CC)NC(=O)[C@H]([C@@H](C)CC)NC(=O)[C@@H]2C[C@@H]3CCCC[C@@H]3N2C(=O)[C@@H]2CCCN2C(=O)[C@H](CC(C)C)NC(=O)[C@H](CO)NC(=O)[C@H](CCCNC(=N)N)NC(=O)[C@H](CO)NC1=O

Further lines, the binder ahead of its results:

B1: ((N-Me)G)-IC+SRSLP-(Oic)-I-(Pen)+I-((5-Azaspiro[2.4]heptane-1-carboxylic acid)-OH (peptide)
peptide: [Sar]ICSRSLP[Oic]I[Pen]I[5‑Azaspiro(2.4)heptane‑1‑carboxylic acid]-OH
modifications: disulfide 3-11
human MASP1 IC50 [1]: 5.1 nM | human MASP2 IC50 [2]: 100 nM

B3: ((N-Me)G)-IC+SRSLP-(Oic)-I-(Pen)+I-OH (peptide)
peptide: [Sar]ICSRSLP[Oic]I[Pen]I-OH
modifications: disulfide 3-11; N-terminus assumed
SMILES: CC[C@H](C)[C@H](NC(=O)[C@H]1NC(=O)[C@H]([C@@H](C)CC)NC(=O)[C@@H]2C[C@@H]3CCCC[C@@H]3N2C(=O)[C@@H]2CCCN2C(=O)[C@H](CC(C)C)NC(=O)[C@H](CO)NC(=O)[C@H](CCCNC(=N)N)NC(=O)[C@H](CO)NC(=O)[C@@H](NC(=O)[C@@H](NC(=O)CNC)[C@@H](C)CC)CSSC1(C)C)C(=O)O
human MASP1 IC50 [1]: 4.9 nM | human MASP2 IC50 [2]: 550 nM

B7: ((N-Me)G)-IC+SRSLP-(Oic)-I-(Pen)+IPE-NH2 (peptide)
peptide: [Sar]ICSRSLP[Oic]I[Pen]IPE-NH2
modifications: disulfide 3-11; N-terminus assumed
SMILES: CC[C@H](C)[C@H](NC(=O)CNC)C(=O)N[C@H]1CSSC(C)(C)[C@@H](C(=O)N[C@H](C(=O)N2CCC[C@H]2C(=O)N[C@@H](CCC(=O)O)C(N)=O)[C@@H](C)CC)NC(=O)[C@H]([C@@H](C)CC)NC(=O)[C@@H]2C[C@@H]3CCCC[C@@H]3N2C(=O)[C@@H]2CCCN2C(=O)[C@H](CC(C)C)NC(=O)[C@H](CO)NC(=O)[C@H](CCCNC(=N)N)NC(=O)[C@H](CO)NC1=O
human MASP1 IC50 [1]: 5 nM | human MASP2 IC50 [2]: 200 nM

B9: (Dap)-IC+SRS-((tBu)A)-PPI-(Pen)+I-NH2 (peptide)
peptide: [Dap]ICSRS[tBuAla]PPI[Pen]I-NH2
modifications: disulfide 3-11; N-terminus assumed
SMILES: CC[C@H](C)[C@H](NC(=O)[C@H]1NC(=O)[C@H]([C@@H](C)CC)NC(=O)[C@@H]2CCCN2C(=O)[C@@H]2CCCN2C(=O)[C@H](CC(C)(C)C)NC(=O)[C@H](CO)NC(=O)[C@H](CCCNC(=N)N)NC(=O)[C@H](CO)NC(=O)[C@@H](NC(=O)[C@@H](NC(=O)[C@@H](N)CN)[C@@H](C)CC)CSSC1(C)C)C(N)=O
human MASP1 IC50 [1]: 5.1 nM | human MASP2 IC50 [2]: 81 nM

B10: ((N-Me)G)-IC+SRSLP-(Oic)-I-(Pen)+IPE-OH (peptide)
peptide: [Sar]ICSRSLP[Oic]I[Pen]IPE-OH
modifications: disulfide 3-11; N-terminus assumed
SMILES: CC[C@H](C)[C@H](NC(=O)CNC)C(=O)N[C@H]1CSSC(C)(C)[C@@H](C(=O)N[C@H](C(=O)N2CCC[C@H]2C(=O)N[C@@H](CCC(=O)O)C(=O)O)[C@@H](C)CC)NC(=O)[C@H]([C@@H](C)CC)NC(=O)[C@@H]2C[C@@H]3CCCC[C@@H]3N2C(=O)[C@@H]2CCCN2C(=O)[C@H](CC(C)C)NC(=O)[C@H](CO)NC(=O)[C@H](CCCNC(=N)N)NC(=O)[C@H](CO)NC1=O
human MASP1 IC50 [1]: 5.1 nM | human MASP2 IC50 [2]: 180 nM

B11: ((N-Me)G)-IC+SRS-((2S)-2-amino-3-(1-methylcyclopropyl)propanoic acid)-PPI-(Pen)+IP-NH2 (peptide)
peptide: [Sar]ICSRS[X13]PPI[Pen]IP-NH2
modifications: disulfide 3-11; N-terminus assumed
SMILES: CC[C@H](C)[C@H](NC(=O)CNC)C(=O)N[C@H]1CSSC(C)(C)[C@@H](C(=O)N[C@H](C(=O)N2CCC[C@H]2C(N)=O)[C@@H](C)CC)NC(=O)[C@H]([C@@H](C)CC)NC(=O)[C@@H]2CCCN2C(=O)[C@@H]2CCCN2C(=O)[C@H](CC2(C)CC2)NC(=O)[C@H](CO)NC(=O)[C@H](CCCNC(=N)N)NC(=O)[C@H](CO)NC1=O
human MASP1 IC50 [1]: 5.1 nM | human MASP2 IC50 [2]: 17 nM
